Values of other authors in paper PMC11449392.

Molecular target: Abl PRM (Homo sapiens) (UniProt P00519)
Chain of UniProt P00519 (P00519 whole entry, looked up): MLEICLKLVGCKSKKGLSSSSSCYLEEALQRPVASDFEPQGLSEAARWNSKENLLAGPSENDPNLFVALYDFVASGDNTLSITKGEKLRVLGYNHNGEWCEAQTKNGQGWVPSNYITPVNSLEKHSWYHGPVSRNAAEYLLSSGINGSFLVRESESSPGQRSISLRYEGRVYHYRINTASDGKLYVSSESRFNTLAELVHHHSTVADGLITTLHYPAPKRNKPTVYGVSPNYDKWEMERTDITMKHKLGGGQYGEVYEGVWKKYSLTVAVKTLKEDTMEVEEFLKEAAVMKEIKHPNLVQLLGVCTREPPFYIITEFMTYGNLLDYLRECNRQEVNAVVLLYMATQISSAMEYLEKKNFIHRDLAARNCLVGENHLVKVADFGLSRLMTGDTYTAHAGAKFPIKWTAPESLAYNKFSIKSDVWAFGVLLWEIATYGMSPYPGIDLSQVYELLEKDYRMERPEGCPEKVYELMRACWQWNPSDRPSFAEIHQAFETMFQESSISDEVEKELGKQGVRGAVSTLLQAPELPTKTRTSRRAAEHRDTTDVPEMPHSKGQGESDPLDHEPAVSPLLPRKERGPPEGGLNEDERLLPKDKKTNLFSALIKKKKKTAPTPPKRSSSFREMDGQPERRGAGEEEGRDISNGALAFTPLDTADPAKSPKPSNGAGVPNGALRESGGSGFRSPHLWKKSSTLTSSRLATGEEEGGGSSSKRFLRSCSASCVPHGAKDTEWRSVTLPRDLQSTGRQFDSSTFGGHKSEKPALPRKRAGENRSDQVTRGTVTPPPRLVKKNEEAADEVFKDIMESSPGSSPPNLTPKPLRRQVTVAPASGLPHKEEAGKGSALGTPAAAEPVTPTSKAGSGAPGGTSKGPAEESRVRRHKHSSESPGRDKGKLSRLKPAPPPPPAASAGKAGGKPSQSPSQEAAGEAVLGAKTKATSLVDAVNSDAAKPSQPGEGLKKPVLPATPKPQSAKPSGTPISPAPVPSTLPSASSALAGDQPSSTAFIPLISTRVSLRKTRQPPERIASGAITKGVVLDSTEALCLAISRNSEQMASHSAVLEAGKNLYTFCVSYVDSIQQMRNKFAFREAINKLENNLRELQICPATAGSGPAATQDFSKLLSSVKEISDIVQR

- Kd: 350 µM
Substance: Nck second SH3 domain (from UniProt P16333)
